From patent US10982244B2, “Modified homoserine dehydrogenase and method for producing homoserine or L-amino acid derived from homoserine using the same” (CJ CHEILJEDANG CORPORATION, priority 2018, dated 2021)

Molecular target: T1, homoserine dehydrogenase (Hom) (Corynebacterium glutamicum, UniProt P08499, R407H)
T1 construct: each supernatant was recovered through two centrifugations (13,000 rpm, 4° C., 30 minutes) and used as a crude extract for measuring the activity of Hom; endogenous in cells; host or cells: Crude cell extracts of Corynebacterium glutamicum ATCC13032 (wild type) and of CA09-0900 (ATCC13032 with chromosomal hom R407H)
Assay: Measurement of Hom activity (U) and desensitization by L-threonine in crude extracts
Format: biochemical
Details: 10 mM L-threonine, compared with wild-type Hom
Protocol: The activity of the enzyme Hom was measured in the prepared strain. The wild-type strain ATCC13032 (the control group) and the CA09-0900 strain prepared in Example 4 were each inoculated into 25 mL of the seed medium and cultured until the strains reached the late log phase. The cells of each strain were recovered by centrifugation, washed twice with a 0.1 M potassium phosphate buffer (pH 7.6), and finally suspended in 2 mL of the same buffer containing glycerol at a concentration of 30%. Each cell suspension was physically disrupted by a conventional glass bead vortexing method for 10 minutes, and each supernatant was recovered through two centrifugations (13,000 rpm, 4° C., 30 minutes) and used as a crude extract for measuring the activity of Hom. For the measurement of the activity of Hom, a […] (0.1 mL) was added to a reaction solution for measuring the enzyme activity (a potassium phosphate (pH 7.0) buffer, 25 mM NADPH, 5 mM aspartate semi-aldehyde) and reacted at 30° C. The Hom enzyme activity U was defined as the number of NADPH consumed per minute according to the presence of L-threonine (0 mM, 10 mM), and the measurement results of the enzyme activity are shown in Table 2 below.

B1: Hom including the R407H modification: modified homoserine dehydrogenase, arginine at position 407 substituted with histidine (protein)
chain: MTSASAPSFNPGKGPGSAVGIALLGFGTVGTEVMRLMTEYGDELAHRIGGPLEVRGIAVSDISKPREGVAPELLTEDAFALIEREDVDIVVEVIGGIEYPREVVLAALKAGKSVVTANKALVAAHSAELADAAEAANVDLYFEAAVAGAIPVVGPLRRSLAGDQIQSVMGIVNGTTNFILDAMDSTGADYADSLAEATRLGYAEADPTADVEGHDAASKAAILASIAFHTRVTADDVYCEGISNISAADIEAAQQAGHTIKLLAICEKFTNKEGKSAISARVHPTLLPVSHPLASVNKSFNAIFVEAEAAGRLMFYGNGAGGAPTASAVLGDVVGAARNKVHGGRAPGESTYANLPIADFGETTTRYHLDMDVEDRVGVLAELASLFSEQGISLRTIRQEERDDDAHLIVVTHSALESDLSRTVELLKAKPVVKAINSVIRLERD
modifications: homoserine dehydrogenase R407H
notes: modified homoserine dehydrogenase, arginine at position 407 substituted with histidine
In the case of B1, the “desensitization to L-threonine” value is reported as “the inhibition of the activity was reduced”.
